From the DeepSol protein solubility set

Assay: soluble on expression in E. coli; label from the status in PepcDB or PDB records

Sequence | soluble on expression in E. coli
MGSDKIHHHHHHMTTAPLSWEELETLTDYQIDTVNGLTNAKARLRLFGQPESDVRVTLYRDNHAWCPYCQKVWLWLEEKQIPYRIEKVTMFCYGEKESWYKRKVPSGMLPAIELDGRIIKESDDILIALEKVFAPLNQGMEDRMVLPLRQLERLLFRAWCVWLCSRAGSSQQEQRNREQFIEMVARIEEALGRTPSPYFLDSFGIVDVIFTPYLERMNASLYYYKGYSLREENPRLSAWFAAMESRPTYCGTQSDFHTHAHDLPPQMGGCWENGETQMLLNKARVDNGPWFGLPDVAYPEPENSRMEALKRTIEHRINIIRVNPLDDKLFDQALRCALTHMMTGEDYVPPSGADVALRYLRDRINVPRDMSIYAAKRLRESLEKTAALAGDGQPDPIPTKHRRDQDPSNFVIK | not soluble
MLETNVDQKSFKFKIVLLGEGCVGKSSLVLRFVENKFSCKHLSTIQASFQNKTVNVEDCQADLHIWDTAGQEKYHALGPIYYRGSNGVLLVFDITDRKSFEKVKNWVLEIKTCLGNTAEILIVGNKIDLEEERQVTRQDAEAYAESEGALYMETSAQDNVGISDAFESLTAKMIEHSRTRSTEPPSTNRSIRLIDNDEAERSKKCCR | not soluble
MVPPITSDEFCETSGCFGDSANLHTTLERLKININSDAKKLVDTNGDLKKHQRFLRIAKVTSLRSKDPNTQVGCVIVDKDNCIVSVGYNGFPIGVDDDVFRWDKEDPEDNKHLYVVHAEMNAIINKRCTTLHDCTVYVTLFPCNKCAQMLIQSRVKKVYFLENRDELAFRASKKMLDHARLPYEQIVMPQEAYVIEL | not soluble
MKICTMGLGYIGLPTSAMFAKYGTEVVGVDIHQKVVDKLNNGEIHIEEPGLGEVVKEVVANGKFRASLTPEEADAFIISVPTPNHDDEHKSCDLSYVLTATEKVLPFVKKGNVIIVESTIAPRSMDDYVKPLVEEAGFTVGEDIYLVHCPERVLPGQILHELVHNNRIVGGVTPACAEAGARVYGVFVEGEIIKTNAKTAEMSKLMENTFRDVNIALANELTKVCNSLDINVLDVIEMANKHPRVNLHYPGPGVGGHCLAVDPYFIVAKAPELANIIKLSRETNVSMPHYVTEKVKELLAGVENPKVAAFGVTYKGNVDDMRESPAMDVIDLIRNEGITVSAHDPHVESDFFELHSAEEAVKDAHLILVLTDHDEFKTMNYDSLAPYMAKTVVFDTRNCVQAVSTGEMKIINFGTLYEALNKNVMMV | not soluble
MFQIIMTSTPKYSIILPTYNEKENLPICIWLIENYLKEVSHEVIIVDDASPDGTQGIAKLLQKEYGDDKILIKPRVGKLGLGTAYSHGLSFARGEFIILMDADLSHHPKFIPEMIALQHKYKLDIVTGTRYKDGGGVSGWDLKRKTISKGANFLAQFLLNPGVSDLTGSFRLYKRDILSKLIAESVSKGYVFQMEMMFRAKKSGYRIGEVPISFVDRFFGESKLGSQEIVDYAKGLLYLFAFVW | not soluble
MKKEHSPKNKVRHFASVEHLNPEAVAAFVDNELSPAAAHRAKIHLVHCAECREEIHRQRRAADRLRDGNNSDMRPSSDLIAKLQSIAACCPDGPTAEEVPSSPQSLLDKLDGVARNIYKTTKTLREARNEALRQYDR | not soluble
MASLFTQEIHLSKRHEEILSQRLMLLQKMKNKFGDENTERASLLQATETASRRNLRLLKDIDAAEEAFQTKLIPHPQPSMLSLETRYWASVEEHIPKWELFLLGRAPYPIGAENQNEVPFVQTEATL | soluble
VVVTDMGILAKRSVDGSLDIFVQSLSQGLPIANAKVDVVGRNGLSVAEGFTDLGGHVHLPKLGQLRREKRPLFYRVEKAGDVSFLPIGDWRRELDMSRFDIGGSNESEDPNTLSAYLFTDRGLYRPGETAHVASLVRSQSWGASLDGLPVKMVVTDPRGIDVLDRTFNLDSSGFNSLDFSSTEAAVAGEYTASLSLIRDKHNLTRLGEESFKVRDFEPDRIKVRVTLGATESGTSIGWLKPEEVSAKVQAEQLFGGPAGDRRVTGEMVLSPTDISFKELPGYYFGVQGE | not soluble
MSLNKLVDAHCHVITDPDNTFCGDDGGSQGTLRCVMSSNPYDWNNLKKLAGRSTSKNDICVGFGVHPWYSHLFYVGSRRDKVSHYQDVLEYKNEEQFDSLVQVLPEPLDLEEYIKREFNDTLVSVIGEIGLDKLFRLPANGFYMQNEKARLTTVKVKLSHQETVFRRFCRLARHTSKPISIHDVKCHGKLNDICNEELLTYHSVKICLHSYTGSKETLLGQWLKKFPPDRIFVSLSKWINFKDPEEGDALVRSLPSTCILTETDYPIDNPDPSYQKALTEQLQYLNAQIARAWDETLDASQAALRVYENFQKFIKEGHHHHHH | not soluble
MGSDKIHHHHHHGNSSTGLSSGGSNVSLEVLKHRPLVEKYAKESDILEYVPILLAIIQVESGGTMEDVMQSSESAGFPPNSLSTEASIKQGCIYFASLVNRAKDIGCDQESIIQSYNYGGGYLDYVGKNGKKYSFALAESFSKEKSDGEKVTYSNPIAIKENGGWRYNYGNMFYVMLVKQYLTTTKFDDKTVQGIFDEAFKYEGTAYVFGGSSPATGFDCSGLTQWCYAKVGLQLPRVAQDQYDAMSHIELKDAKPGDLIFFHSTYDAGTYVTHVGIYAGDNRMFHAGDPVGWTNLTETYWQQHIIGAGRYKNRKGDR | not soluble
MEQMIFIRKDDKVEVFSEEEELKGSYYRAILEDNPTKSGHNKLKVRYLTQLNEHRLAPLTEFVDQRFIRPVPSEDVNDGVVFVEGLMVDAYLKDGWWTGVVVKTMEDEKFLVYFDCPPDIIQFEKKKLRVHLDWTGFKWIRPDNKELVKSVFSCGTMVELRFDCAWIPVIVIKELEKDKRFLVKYWNKSYSCRESKNLIVDSLRLRPMQPPLSVGKYELLDHVEAFSGFEWRQGVVRGIVFEGRYMVSFGATKEASQFNHSDIRPPMEWEDGVWHKRTKPKRQKETSLDGNRNVQTKEPPGNEMADDVKKESGLPITLGVTATKNKTQGKVSPVPMKNGFGNESTREKMPEEPKIKYYTRKRKRGGLKLNSYINKTVLSSDRTPNVVKNSASNAEENHAKHTIMVLPFAKKSPVWKTYESLEVFKSVSHSLHFSPLFETKQDFREGYAIGMMVTYFGLLEKFKDLEADVPVSQLNSLKDSFSELEKHGFNVTTPLSRIDKLLALKDRQLYIMEELKGFDKEMTNEFSKAKQEFDDMEQKILEVKHKIIELQRQEAALKEQKEAEKEQKDAAWKKICQMESCAKDLNVELEDVEFEFETILSAPW | soluble
MSLERSLSMELVRVTEAAALASARWMGRGKKDEADEAATSAMRDVFDTVPMKGTVVIGEGEMDEAPMLYIGEKLGNGYGPRVDVAVDPLEGTNILASGGWNALTVIAVADHGTLLNAPDMYMQKIAVGPEAVGCIDIEAPVIDNLKAVAKAKNKDVEDVVATILNRERHAKIISELREAGARIKLINDGDVAGAINTAFDHTGVDILFGSGGAPEGVLSAVALKALGGEIIGKLLPQSEEEITRCHKMGLDLSKVLRMEDLVKGDDAIFAATGVTDGELLKGVQFKGSVGTTESLVIRAKSGTVRFVDGRHSLKKKPNLVIRPEGGSHHHHHH | soluble
MEIRVANKYALGKKLGSGSFGDIYVAKDIVTMEEFAVKLESTRSKHPQLLYESKLYKILGGGIGVPKVYWYGIEGDFTIMVLDLLGPSLEDLFTLCNRKFSLKTVLMTADQMLNRIEYVHSKNFIHRDIKPDNFLIGRGKKVTLIHIIDFGLAKKYRDSRSHTHIPYKEGKNLTGTARYASINTHLGIEQSRRDDIEALGYVLMYFLRGSLPWQGLKAISKKDKYDKIMEKKISTSVEVLCRNASFEFVTYLNYCRSLRFEDRPDYTYLRRLLKDLFIREGFTYDFLFDWTCVYASEKDKKKMLENKNRFDQTADQEGRVKQN | not soluble
GKNMDTSAEPADVQANVSDSSRIEQEAIGMIEDFYEAYAASFMSTGKEALALGDSIKQKFLTKELIEKVDRLIEATDADPIIRAQDLGENDMKTLSVKHLNDNWYEVNYTSAKGSQYERAVSIPVRVVNVDGQYLIDDITPEN | soluble
MGSDKIHHHHHHMINQVYRLVSERQFEEANIEEALTEDVVVVRPTYLSICAADQRYYTGSRGKEMLSKKLPMALIHEGVGQVTYDATGEFEIGTKVVMIPNTPTEDDPVIAENYRRSSLFRSSGYDGLMQENVFMRRDRVVRLPENMDMEVAAYSELISVAFHAITRFKQKANANQSVFGVWGDGNLGFITCLLLKTIYPESKVIIFGKTQYKLDFFSFVDEAHLVDEIPEGLVIDNAFECAGGKGSQYAVEQIIDLIKPEGTISLLGVSENPIEFNSRMVLEKGLTVFGSSRSGKEDFQNTVNFLSENERAVEYLSSLIGQRKVVRNLQDIIEAFETDLRNPFGKTVMEWKV | not soluble
MGSDKIHHHHHHMRVMAFVQARMGSTRLPGKSLMPVWNGMGVLEMTLRRALRARTLSGVVLCTSTDPACDALETLASGLGVQAFRGPEDDVLTRYALATERFEPDAVVRICADSPLVCPEGIDALVAFFRDEGLDYAAHAMDGTGLPDGLGCEVFTAAALAQAHAEATAPEDREHVSLFIRHRPERFRQATLAADAALRAPGVSLDVDTQDDLDALRRFIMALPPSEGPFWSADAIAPLARGLHTPPQGTSMDIASDDYHDFFIRDGKLIGEFEQMYRKSRHAPWHQDEACDKWFNKVSAALVGHALDDPSVRTVFEVGSGLGYFLSQFAGEGRTLTGTDVSATAVEKARALFPGISFEVDDIRFEGRRGPYDLCLMQAVCWCIFPHMDDVVRNVTATVRPGGYLFLGECFQPLDGPFAGKDVIPTPDALIGHFSHAFDTVADVRVTRGEMGGGPIIYWLGRRRG | not soluble
MENLKNYFDVVIIGAGPAGLFAAYELSKYDNLKTVVIDRGKDVLERHCAAEKLKKCIKCNPCQIMYGVGGAGGLSDGTLNLRPDIGGNLAEITNNENYAWQLIFEVDKIFLEHGGPKKLFKGSFEKIKGLQRRSAQNGVRFIPIIQRHIGSDHTKQLINNIKTTLQNRGVEFLLNTEVFKFEKNKVFVNISGKKEEINAKYIIVAPGRGNAEWFLKISEKIGLISNHGPIDVGVRVEVPSIIMESITEINHDPKFHIYTDTYDDFVRTFCTNPYGFVVEENYGDIIGVNGHSMVDKKSENTNFSFLTRIELTEPVENTTSYGKSIAKLTTTLGGGKPILQRLGDLKRGRRSTWDRLKKSSFDPTLKQVTPGDIAMALPHRIVTNIIEGLEKLDKVIPGVSNDHTLLYAPEIKYYAMKTKVNDDLETSILNIFAAGDGAGLSRDITNSCATGMLAARGILKKEGITDIFKDENTNWQEKVESMKLEHHHHHH | soluble
MAHHHHHHMQMRWIVDAEERYRRSLTWKPAVGTIYDHKIVMKRGGSSHVQYRFDVDGKEYLGDRFRSGGVHKEEMVSNPALLGAGTQLVVYYNPSDPSESAIKLQTDRAAESAFLVGITISLLVAYRSVRCETILPNMFYSFLAVNRRLGGITGLREARTHSKQKMKYGKGTGAI | not soluble
MGSDKIHHHHHHMTIVYLYTALCTVGGADRSIIQKANYLADEMHQDVFIITDSQKERPPVFPISPRIRHIDIGIDFDRQYHHNLLVRGYYYFTLMHLYRKKLEYWLKTLKPDIVISTLGRELDFLTQLDDGSVKIGESHIAKPYTRNLHLMEQRGFPYKQIARHWRKKQEEAVKKLDALVVLTQHDADNWKEVKKACVIPNFLPFSPEKGSSCLEKRIISIGRYSEQKGYDRLIEAWIKVNRKHPDWHIRIYGEGQDRNSLQELIEKHHIENSFSLCPPTKSIQEKYLESSIYVMSSRFEGLPMALLEAMACGVPCISFDCPYGPAEIITPEEDGILVKNGNTDELADAICRLIEDTDKRIRMGKQAQKNIQRYSREEVMKLWDELFNTLTTARP | not soluble
MPELAISTDKVAFLIEKAREFDVKEGESDADSGSNGADDDMVDVLEDTGDDPVVQEISGFIAAMTEEEQIDLVALMRLGRGDGSIEEWDDLRREAAEGRNGRTARYLLGEPLLGDYLADGLDQFGLSWSDERTTPVV | not soluble
